Experimental data as given in US20250057918A1 (YALE UNIVERSITY, published 2025).
Numbering of substitutions follows the chain as printed.

B1: hCS1 (ligand)
chain: YFGKLESKLSVIRNLNDQVLFIDQGNRPLFEDMTDSDCRDNAPRTIFIISTYKDSQPRGKAVTISVKCEKISTLSCENKIISFKEMNPPDNIKDTKSDIIFFQRDVPGHKHKMQFESSSYEGYFLACEKERDLFKLILKKEDELGDRSIMFTVQNED
notes: recombinant with C-terminal hexahistidine tag in SPR and cell assays
B2: 6-12 (ligand)
chain: B1 chain with T51K, K53S, Q56L, P57A, K60L, K110S, H111R
notes: recombinant with C-terminal hexahistidine tag in SPR and cell assays; also called h6-12; version 2.0 human DR-IL-18 variant
B3: 6-31 (ligand)
chain: B1 chain with T51K, K53G, Q56G, P57A, K60L, Q103E, K110S, H111G, M113V
notes: recombinant with C-terminal hexahistidine tag in SPR and cell assays; also called h6-31; version 2.0 human DR-IL-18 variant
B4: 6-27 (ligand)
chain: B1 chain with T51K, K53S, Q56R, P57A, K60L, Q103A, D105S, K110G, H111R, M113T
notes: recombinant with C-terminal hexahistidine tag in SPR and cell assays; also called h6-27; version 2.0 human DR-IL-18 variant
B5: hCS3 (ligand)
chain: B1 chain with Y1R
notes: as for B1
B6: mCS2 (ligand)
chain: HFGRLHCTTAVIRNINDQVLFVDKRQPVFEDMTDIDQSASEPQTRLIIYAYGDSRARGKAVTLSVKDSKMSTLSCKNKIISFEEMDPPENIDDIQSDLIFFQKRVPGHNKMEFESSLYEGHFLACQKEDDAFKLILKKKDENGDKSVMFTLTNLHQS
notes: recombinant with C-terminal hexahistidine tag in SPR; also called DR-IL-18 (mCS2); DR-18 variant mCS2
B7: mB1 (ligand)
chain: B6 chain with A50G, G52A, R55D, G58A, R104S, L151V
notes: recombinant with C-terminal hexahistidine tag in SPR
B8: mCS1 (ligand)
chain: B6 chain with H1N, A50G, G52A, A56V
notes: as for B7
B9: mC1 (ligand)
chain: B6 chain with H1N, G52V, S54R, A56L, R104K
notes: as for B7
B10: hH3 (ligand)
chain: B1 chain with Y1R, K8R
B11: hA8 (ligand)
chain: B1 chain with K8R, T51K, S55K, G59A, K60Q, V153I
notes: also called human DR-IL-18 variant A8
B12: hB9 (ligand)
chain: B1 chain with Y1R, L5H, K53R, Q103E, D105N, H111Y

Target: T1, IL-18 receptor (IL-18R) on HEK-Blue IL-18 reporter cells (UniProt Q13478 19-541; O95256 20-599, limits assumed)
T1 sequence (looked up) 1: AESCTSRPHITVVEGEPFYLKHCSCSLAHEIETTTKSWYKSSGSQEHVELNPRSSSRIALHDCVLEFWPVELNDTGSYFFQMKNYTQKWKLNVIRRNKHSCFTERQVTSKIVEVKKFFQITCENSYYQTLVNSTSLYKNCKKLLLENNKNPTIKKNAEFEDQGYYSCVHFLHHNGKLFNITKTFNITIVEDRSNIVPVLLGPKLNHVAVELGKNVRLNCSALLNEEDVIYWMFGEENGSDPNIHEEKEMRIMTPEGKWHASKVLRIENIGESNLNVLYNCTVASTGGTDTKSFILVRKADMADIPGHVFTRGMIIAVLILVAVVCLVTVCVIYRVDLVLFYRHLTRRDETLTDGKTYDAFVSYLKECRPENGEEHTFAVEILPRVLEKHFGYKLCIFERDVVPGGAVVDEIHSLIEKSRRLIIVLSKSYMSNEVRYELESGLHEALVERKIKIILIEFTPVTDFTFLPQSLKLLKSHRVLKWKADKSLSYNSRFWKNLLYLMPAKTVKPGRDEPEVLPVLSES
T1 sequence (looked up) 2: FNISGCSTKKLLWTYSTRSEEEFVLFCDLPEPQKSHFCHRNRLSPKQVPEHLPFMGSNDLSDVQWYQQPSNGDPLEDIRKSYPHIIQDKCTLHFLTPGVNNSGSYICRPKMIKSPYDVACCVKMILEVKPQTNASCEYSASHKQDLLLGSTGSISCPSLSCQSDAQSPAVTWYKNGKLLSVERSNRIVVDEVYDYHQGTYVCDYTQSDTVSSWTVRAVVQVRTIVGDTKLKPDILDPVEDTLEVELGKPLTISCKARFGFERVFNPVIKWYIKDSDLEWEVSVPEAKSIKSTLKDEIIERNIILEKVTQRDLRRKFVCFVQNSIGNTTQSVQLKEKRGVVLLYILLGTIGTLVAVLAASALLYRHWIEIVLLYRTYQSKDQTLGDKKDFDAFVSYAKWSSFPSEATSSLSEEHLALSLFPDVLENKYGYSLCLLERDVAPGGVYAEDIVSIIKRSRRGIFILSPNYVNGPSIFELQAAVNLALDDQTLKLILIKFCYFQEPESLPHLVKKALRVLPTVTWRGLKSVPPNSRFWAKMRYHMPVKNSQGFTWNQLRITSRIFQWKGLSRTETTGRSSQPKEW
Assay: cell-based or functional assay

| Binder | EC50 (read off the curve); HEK-Blue IL-18 SEAP reporter, OD 655 nM |
| --- | --- |
| B1 | ~4 nM |

Target: T1, IL-18 receptor (IL-18R) on HEK-Blue …
Assay: cell-based or functional assay
Remark: another data set of the same source

| Binder | EC50 (read off the curve); HEK-Blue IL-18 SEAP reporter, OD 655 nM |
| --- | --- |
| B2 | ~0.6 nM |
| B3 | ~4 nM |
| B4 | ~1 nM |

Target: T2, human IL-18BP (amino acids 31-194) (human, UniProt O95998 31-194, biotinylated on the AviTag (BirA ligase) where immobilized or used for staining)
T2 construct: Secreted decoy receptor; made in insect cells (gp67 signal peptide); also called hIL-18BP
T2 sequence: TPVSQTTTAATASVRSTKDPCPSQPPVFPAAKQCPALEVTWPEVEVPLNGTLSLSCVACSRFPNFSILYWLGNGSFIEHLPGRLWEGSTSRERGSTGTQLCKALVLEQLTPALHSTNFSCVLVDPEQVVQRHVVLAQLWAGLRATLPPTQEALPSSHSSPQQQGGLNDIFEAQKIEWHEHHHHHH
Assay: SPR; KD BP / KD Ra normalized to WT IL-18

| Binder | IL-18 BP:Ra Dissociation Constant Ratio |
| --- | --- |
| B2 | > 9.32e+06 |
| B1 | 3020 |
| B3 | > 1.06e+06 |
| B5 | 4350 |
| B4 | > 5.86e+06 |

Target: T3, mouse IL-18BP (amino acids 31-194) (mouse, UniProt Q9Z0M9 29-193, biotinylated on the AviTag (BirA ligase))
T3 construct: Secreted decoy receptor; made in Expi293 cells (H7 signal peptide); the stated range is the same as for the human protein; also called mIL-18BP
T3 sequence: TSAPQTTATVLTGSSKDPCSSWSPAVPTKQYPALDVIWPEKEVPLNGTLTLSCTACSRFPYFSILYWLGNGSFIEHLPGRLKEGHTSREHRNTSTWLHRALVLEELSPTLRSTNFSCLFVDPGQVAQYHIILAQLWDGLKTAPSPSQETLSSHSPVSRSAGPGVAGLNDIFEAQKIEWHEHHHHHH
Assay: SPR; KD BP / KD Ra normalized to WT IL-18

| Binder | IL-18 BP:Ra Dissociation Constant Ratio |
| --- | --- |
| B6 | > 7.5e+07 |

Target: T2, human IL-18BP (amino acids 31-194)
Assay: SPR; KD IL-18BP / KD IL-18Rα; SPR; ratio of two KDs
Experimental: (§1) Experiments were conducted using a Biacore™ T100 (Protein analysis interaction system) and carried out at 25° C. Biotinylated IL-18Rα or TL-18BP were immobilized onto a Biacore™ biotin capture chip (Series S CAP sensor chip, GE Healthcare) to yield an Rmax of ˜50 RU (IL-18Rα) or ˜10 RU (IL-18BP). Measurements were made with serial dilutions of the IL-18 variants in HEPES buffered Saline-P+ buffer (10 mM HEPES pH 7.4, 150 mM NaCl, 0.005% surfactant P20). The surface was regenerated by three 60-see injections of regeneration buffer (3/4 (v/v) 8M guanidine hydrochloride with 1/4 (v/v) 1M sodium hydroxide). Experiments were performed in multiple channels simultaneously for increased observations. All data were analyzed with the Biacore™ T100 evaluation software version 2.0 with a 1:1 Langmuir binding model.
To additionally characterize the receptor binding activities of the DR-IL-18 variants, the cytokines were expressed recombinantly and surface plasmon resonance for IL-18Rα and IL-18BP was performed (see FIG. 5B for representative traces).

| Binder | KD ratio: IL-18BP/IL-18Rα |
| --- | --- |
| B1 | 2.41 |
| B5 | 2.27 |

Target: T3, mouse IL-18BP (amino acids 31-194)
Assay: as above
Experimental: By contrast, very little binding is observed with the same variants and mIL-18BP (right). (FIG. 11B) Representative surface plasmon resonance sensorgrams between immobilized biotinylated mIL-18BP and the murine DR-IL-18 variants.
as §1

| Binder | KD ratio: IL-18BP/IL-18Rα |
| --- | --- |
| B7 | 21000 |
| B8 | 7040 |
| B9 | 26300 |
| B6 | 133000 |

Target: T2, human IL-18BP (amino acids 31-194)
Assay: on-yeast isotherms; KD IL-18BP / KD IL-18Rα (20 µM used for NBD)

| Binder | KD ratio: IL-18BP/IL-18Rα |
| --- | --- |
| B2 | 1200 |
| B10 | > 239 |
| B3 | 490 |
| B11 | > 347 |
| B4 | 480 |
| B12 | > 157 |

Target: T2, human IL-18BP (amino acids 31-194)
Assay: on-yeast isotherms; KD IL-18BP / KD IL-18Rα; on-yeast isotherms; ratio of two KDs

| Binder | KD ratio: IL-18BP/IL-18Rα |
| --- | --- |
| B1 | 300 |
| B5 | 103 |

Target: T3, mouse IL-18BP (amino acids 31-194)
Assay: on-yeast isotherms; KD IL-18BP / KD IL-18Rα (10 µM used for NBD); on-yeast isotherms; 10 µM put in for NBD

| Binder | KD ratio: IL-18BP/IL-18Rα |
| --- | --- |
| B7 | > 559 |
| B8 | > 935 |
| B9 | > 233 |
| B6 | > 885 |

Target: T4, mouse IL-18Rα ectodomain (amino acids 19-329) (mouse, UniProt Q61098 19-329, biotinylated on the AviTag (BirA ligase))
T4 construct: range 19-329; Secreted from Expi293 cells (H7 signal peptide); also called mIL-18Rα; Ra
T4 sequence: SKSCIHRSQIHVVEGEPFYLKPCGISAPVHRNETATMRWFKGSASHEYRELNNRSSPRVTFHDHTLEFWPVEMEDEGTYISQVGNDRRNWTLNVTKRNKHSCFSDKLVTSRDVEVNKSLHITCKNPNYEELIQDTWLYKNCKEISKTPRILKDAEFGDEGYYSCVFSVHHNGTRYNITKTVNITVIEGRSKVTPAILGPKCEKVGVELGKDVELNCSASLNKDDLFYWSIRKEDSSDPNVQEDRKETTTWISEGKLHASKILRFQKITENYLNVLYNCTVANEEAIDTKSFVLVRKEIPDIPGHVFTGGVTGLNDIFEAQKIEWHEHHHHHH
Assay: flow cytometry, mIL-18Rα titrated on yeast-displayed murine IL-18 variant (binding isotherm, %Max)

| Binder | EC50 (read off the curve) |
| --- | --- |
| B7 | ~20 nM |
| B8 | ~10 nM |
| B6 | ~10 nM |
